The target in assay [1] is T1, murine NT5E expressed on 4T1 cells (murine) (UniProt Q61503).
T1 sequence (looked up): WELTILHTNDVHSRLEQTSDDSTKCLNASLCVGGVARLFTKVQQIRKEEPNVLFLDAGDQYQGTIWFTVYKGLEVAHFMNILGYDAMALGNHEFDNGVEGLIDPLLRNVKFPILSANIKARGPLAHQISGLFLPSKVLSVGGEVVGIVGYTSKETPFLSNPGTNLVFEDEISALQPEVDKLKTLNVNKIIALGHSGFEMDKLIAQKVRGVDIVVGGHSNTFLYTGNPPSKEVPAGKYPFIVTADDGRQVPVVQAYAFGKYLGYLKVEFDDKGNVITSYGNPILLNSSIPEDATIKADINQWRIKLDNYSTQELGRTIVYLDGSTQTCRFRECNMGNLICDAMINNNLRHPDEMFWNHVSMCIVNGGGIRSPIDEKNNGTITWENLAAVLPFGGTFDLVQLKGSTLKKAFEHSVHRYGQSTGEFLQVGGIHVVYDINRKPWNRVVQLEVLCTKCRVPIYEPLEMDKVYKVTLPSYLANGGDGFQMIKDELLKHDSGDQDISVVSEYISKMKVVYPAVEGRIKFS
The assay can be described thus: cell-based or functional assay.

Assay [2] deals with T2, human NT5E expressed on MDA-MB-231 cells (human) (UniProt P21589).
T2 sequence (looked up): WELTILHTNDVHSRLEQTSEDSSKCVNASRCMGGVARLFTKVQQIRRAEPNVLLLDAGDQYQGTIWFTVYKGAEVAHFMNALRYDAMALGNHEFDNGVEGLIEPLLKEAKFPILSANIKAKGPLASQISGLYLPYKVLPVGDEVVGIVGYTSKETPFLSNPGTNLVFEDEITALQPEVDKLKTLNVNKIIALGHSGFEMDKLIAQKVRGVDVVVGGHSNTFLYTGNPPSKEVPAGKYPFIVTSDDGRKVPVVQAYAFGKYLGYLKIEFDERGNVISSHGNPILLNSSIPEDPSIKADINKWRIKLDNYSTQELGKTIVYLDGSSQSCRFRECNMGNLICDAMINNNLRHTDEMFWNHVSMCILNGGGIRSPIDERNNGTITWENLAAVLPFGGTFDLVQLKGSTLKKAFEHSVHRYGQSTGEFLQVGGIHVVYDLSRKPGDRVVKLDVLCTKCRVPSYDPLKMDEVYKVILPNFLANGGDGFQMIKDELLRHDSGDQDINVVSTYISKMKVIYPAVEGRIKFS
As to the kind of experiment: cell-based or functional assay.

In assay [3] the target is hNT5EFF (F417A/F500A mutant of hNT5E) (human). The assay can be described thus: DSF thermal shift, 1.5-fold molar excess of Fab, 1 mM ATP (hNT5EFF alone 47° C.).
Assay [4] shares this target. The assay can be described thus: DSF thermal shift, 1.5-fold molar excess of Fab, no ATP (hNT5EFF alone 47° C.).

This note sets out measurements from patent publication US20240199757A1.

B1: 1789 AM39 IgG (antibody, V domains shown)
VH: EVQLVESGGGLVQPGGSLRLSCAASGFNVSYSSIHWVRQAPGKGLEWVASIRGAGSDTRYADSVKGRFTISADTSKNTAYLQMNSLRAEDTAVYYCARNYWGWYPFYYFAFDYWGQGTLVTVSS
VL: DIQMTQSPSSLSASVGDRVTITCRASQSVSSAVAWYQQKPGKAPKLLIYSASSLYSGVPSRFSGSRSGTDFTLTISSLQPEDFATYYCQQGWDYPITFGQGTKVEIKR
B1: the IC50 of NT5E activity on 4T1 cells, with ATP in assay [1] stood at 12.7 nM. In assay [2], this molecule had an IC50 of NT5E activity on MDA-MB-231 cells, no ATP of 6.9 nM and an IC50 of NT5E activity on MDA-MB-231 cells, with ATP of 2.5 nM.

B2: 1789 Fab (Fab, V domains shown)
VH: EVQLVESGGGLVQPGGSLRLSCAASGFNVSYSSIHWVRQAPGKGLEWVASISSSSGYTYYADSVKGRFTISADTSKNTAYLQMNSLRAEDTAVYYCARNYWGWYPFYYFAFDYWGQGTLVTV
VL: DIQMTQSPSSLSASVGDRVTITCRASQSVSSAVAWYQQKPGKAPKLLIYSASSLYSGVPSRFSGSRSGTDFTLTISSLQPEDFATYYCQQGWDYPITFGQGTKVEIKR
In the case of B2, the values for the TM of NT5E in the presence of the Fab in assay [3] and in assay [4] were 46 ° C and 47 ° C, respectively.

B3: 1789 AM32 IgG (antibody, V domains shown)
VH: EVQLVESGGGLVQPGGSLRLSCAASGFNVSYSSIHWVRQAPGKGLEWVARIRGNEGDTYYADSVKGRFTISADTSKNTAYLQMNSLRAEDTAVYYCARNYWGWYPFYYFAFDYWGQGTLVTVSS
VL: DIQMTQSPSSLSASVGDRVTITCRASQSVSSAVAWYQQKPGKAPKLLIYSASSLYSGVPSRFSGSRSGTDFTLTISSLQPEDFATYYCQQGWDYPITFGQGTKVEIKR
B3: the IC50 of NT5E activity on 4T1 cells, with ATP in assay [1] is 9.1 nM. In assay [2], this molecule registered an IC50 of NT5E activity on MDA-MB-231 cells, no ATP of 5.6 nM and an IC50 of NT5E activity on MDA-MB-231 cells, with ATP of 2.3 nM.

B4: 1789 AM42 IgG (antibody, V domains shown)
VH: EVQLVESGGGLVQPGGSLRLSCAASGFNVSYSSIHWVRQAPGKGLEWVAKIRGGHQDTHYADSVKGRFTISADTSKNTAYLQMNSLRAEDTAVYYCARNYWGWYPFYYFAFDYWGQGTLVTVSS
VL: DIQMTQSPSSLSASVGDRVTITCRASQSVSSAVAWYQQKPGKAPKLLIYSASSLYSGVPSRFSGSRSGTDFTLTISSLQPEDFATYYCQQGWDYPITFGQGTKVEIKR
In turn, B4 yielded an IC50 of NT5E activity on 4T1 cells, with ATP in assay [1] of 8.8 nM. In assay [2], this molecule yielded an IC50 of NT5E activity on MDA-MB-231 cells, no ATP of 5.4 nM and an IC50 of NT5E activity on MDA-MB-231 cells, with ATP of 1.9 nM.
